Reference: publication PMC2788773 (Molecular cell, 2009)
Changes are numbered by the printed parent chain.

Tests used:
Assay in all cases: pull-down
His6-S-Rad54-T132D = target: T1, His6-S-Rad54-T132D (S. cerevisiae (budding yeast), UniProt P32863 1-898, T132D)
T1 sequence (looked up): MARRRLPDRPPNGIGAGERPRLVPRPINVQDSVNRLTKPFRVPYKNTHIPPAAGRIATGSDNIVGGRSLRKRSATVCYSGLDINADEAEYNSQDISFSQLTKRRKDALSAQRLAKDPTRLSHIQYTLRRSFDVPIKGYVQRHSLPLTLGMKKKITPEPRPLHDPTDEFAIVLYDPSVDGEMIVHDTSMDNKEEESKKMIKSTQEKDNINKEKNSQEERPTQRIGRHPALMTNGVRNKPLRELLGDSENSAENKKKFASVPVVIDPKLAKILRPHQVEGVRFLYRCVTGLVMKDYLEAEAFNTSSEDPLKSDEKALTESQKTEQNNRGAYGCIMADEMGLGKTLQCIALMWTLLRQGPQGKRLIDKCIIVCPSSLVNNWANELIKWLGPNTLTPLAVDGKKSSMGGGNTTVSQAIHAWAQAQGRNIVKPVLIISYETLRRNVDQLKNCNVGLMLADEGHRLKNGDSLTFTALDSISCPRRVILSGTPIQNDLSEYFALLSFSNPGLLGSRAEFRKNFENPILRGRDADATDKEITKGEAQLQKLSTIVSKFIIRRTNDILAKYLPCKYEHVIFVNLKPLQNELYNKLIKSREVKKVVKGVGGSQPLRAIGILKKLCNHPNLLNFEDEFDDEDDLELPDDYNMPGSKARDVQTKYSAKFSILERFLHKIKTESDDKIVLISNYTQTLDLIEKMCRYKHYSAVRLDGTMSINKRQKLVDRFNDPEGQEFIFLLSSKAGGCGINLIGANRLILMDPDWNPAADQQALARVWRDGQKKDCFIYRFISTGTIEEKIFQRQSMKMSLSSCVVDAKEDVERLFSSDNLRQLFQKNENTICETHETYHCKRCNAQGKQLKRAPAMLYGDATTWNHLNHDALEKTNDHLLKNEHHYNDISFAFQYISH

His6-S-Rad54-T132A = target: T2, His6-S-Rad54-T132A (S. cerevisiae (budding yeast), UniProt P32863 1-898, T132A)
T2 sequence (looked up): T1 sequence (looked up) with D132A

His6-S-Rad54 = target: T3, His6-S-Rad54 (S. cerevisiae (budding yeast), UniProt P32863 1-898)
T3 sequence (looked up): T1 sequence (looked up) with D132T

B1: Rad51 (natural protein, S. cerevisiae (budding yeast), UniProt P25454 1-400, looked up)
chain: MSQVQEQHISESQLQYGNGSLMSTVPADLSQSVVDGNGNGSSEDIEATNGSGDGGGLQEQAEAQGEMEDEAYDEAALGSFVPIEKLQVNGITMADVKKLRESGLHTAEAVAYAPRKDLLEIKGISEAKADKLLNEAARLVPMGFVTAADFHMRRSELICLTTGSKNLDTLLGGGVETGSITELFGEFRTGKSQLCHTLAVTCQIPLDIGGGEGKCLYIDTEGTFRPVRLVSIAQRFGLDPDDALNNVAYARAYNADHQLRLLDAAAQMMSESRFSLIVVDSVMALYRTDFSGRGELSARQMHLAKFMRALQRLADQFGVAVVVTNQVVAQVDGGMAFNPDPKKPIGGNIMAHSSTTRLGFKKGKGCQRLCKVVDSPCLPEAECVFAIYEDGVGDPREEDE
His6-S-Rad54-T132D
  fold reduction in Rad51 binding compared to Rad54: 2 fold
His6-S-Rad54-T132A
  binding result: binds
His6-S-Rad54
  binding result: binds
